Protein stability index data for 94 variants are collected here from the supplement of paper PMC10567573.

The labels stand for the following.
B1: CASP6 (parent)
chain: TCADRDNLTRRFSDLGFEVKCFND
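Also: lentivirally expressed fusions sorted by FACS into six bins by GFP to DsRed ratio, PSI derived from sequencing read proportions per bin multiplied by bin number.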

Variants of B1 are the subject of the data set. The data set can be described thus: protein stability index of a GFP-peptide fusion (GPS, HEK-293T) (PSI 1-6); higher = more stable. Conditions: c terminus: a fixed tail appended.
With TCADRDNMTRRFSDLGFEVKCFND [L8M], the protein stability index came to 3.03. Turning to TCADRDNLTRRSSDLGFEVKCFND [F12S], the protein stability index stood at 4.08.

Turning to TCADRDNLTRRRSDLGFEVKCFND [F12R], the protein stability index turned out to be 3.35.

Regarding TCADRDNLTRRASDLGFEVKCFND [F12A], the protein stability index was 4.07. In the case of TCADRDNLTRRISDLGFEVKCFND [F12I] it was 2.98; in that of TCADRDNLTRRCSDLGFEVKCFND [F12C], 3.08; in that of TCADRDNLTRRDSDLGFEVKCFND [F12D], 4.23.

Turning to TCADRDNLTRRHSDLGFEVKCFND [F12H], the protein stability index was found to be 4.07.

On to TCADRDNLTRRTSDLGFEVKCFND [F12T], for which the protein stability index is 3.96. To TCADRDNLTRRMSDLGFEVKCFND [F12M] belongs 3.42; to TCADRDNLTRRLSDLGFEVKCFND [F12L], 3.33; to TCADRDNLTRRGSDLGFEVKCFND [F12G], 3.81. Turning to TCADRDNLTRRQSDLGFEVKCFND [F12Q], the protein stability index is 3.97. Turning to TCADRDNLTRRESDLGFEVKCFND [F12E], the protein stability index is 4.7. Turning to TCADRDNLTRRPSDLGFEVKCFND [F12P], the protein stability index was 4.32.

For the variant TCADRDNLTRRNSDLGFEVKCFND [F12N], the protein stability index came out at 4.35.

With TCADRDNLTRRVSDLGFEVKCFND [F12V], the protein stability index is 4.21.

As to TCADRDNLTRRKSDLGFEVKCFND [F12K], the protein stability index was determined as 4.1. In the case of TCADCDNLTRRFSDLGFEVKCFND [R5C] it was 2.65; in that of TCADMDNLTRRFSDLGFEVKCFND [R5M], 3.6. TCADGDNLTRRFSDLGFEVKCFND [R5G]: the protein stability index was determined as 3.64. As to TCADYDNLTRRFSDLGFEVKCFND [R5Y], the protein stability index was found to be 2.92. Take TCADHDNLTRRFSDLGFEVKCFND [R5H]: the protein stability index is 2.86. With TCADIDNLTRRFSDLGFEVKCFND [R5I], the protein stability index came to 2.71. To TCADFDNLTRRFSDLGFEVKCFND [R5F] belongs 2.43; to TCADWDNLTRRFSDLGFEVKCFND [R5W], 2.62.

Turning to TCADEDNLTRRFSDLGFEVKCFND [R5E], the protein stability index amounted to 3.58. In the case of TCADKDNLTRRFSDLGFEVKCFND [R5K] it was 3.77; in that of TCADPDNLTRRFSDLGFEVKCFND [R5P], 3.98.

For the variant TCADVDNLTRRFSDLGFEVKCFND [R5V], the protein stability index is 3.5.

On to TCADADNLTRRFSDLGFEVKCFND [R5A], for which the protein stability index was found to be 4.37. In the case of TCADSDNLTRRFSDLGFEVKCFND [R5S], the protein stability index came to 3.8. Consider TCADTDNLTRRFSDLGFEVKCFND [R5T], for which the protein stability index stood at 3.48. In the case of TCADQDNLTRRFSDLGFEVKCFND [R5Q], the protein stability index is 3.44.

TCADDDNLTRRFSDLGFEVKCFND [R5D]: the protein stability index came to 4.21. Take TCADLDNLTRRFSDLGFEVKCFND [R5L]: the protein stability index amounted to 3.5. In the case of TCADNDNLTRRFSDLGFEVKCFND [R5N] it was 3.33; in that of TCADRDNLTRWFSDLGFEVKCFND [R11W], 1.62. In the case of TCADRDNLTRVFSDLGFEVKCFND [R11V] it was 2.76; in that of TCADRDNLTRYFSDLGFEVKCFND [R11Y], 2.35.

TCADRDNLTRPFSDLGFEVKCFND [R11P]: the protein stability index was determined as 3.68. In the case of TCADRDNLTRNFSDLGFEVKCFND [R11N] it was 3.76; in that of TCADRDNLTRLFSDLGFEVKCFND [R11L], 3.12; in that of TCADRDNLTRIFSDLGFEVKCFND [R11I], 2.47. In the case of TCADRDNLTRFFSDLGFEVKCFND [R11F] it was 2.33; in that of TCADRDNLTRGFSDLGFEVKCFND [R11G], 3.36.

In the case of TCADRDNLTRAFSDLGFEVKCFND [R11A], the protein stability index came to 3.5.

TCADRDNLTREFSDLGFEVKCFND [R11E]: the protein stability index amounted to 4.2.

Take TCADRDNLTRMFSDLGFEVKCFND [R11M]: the protein stability index stood at 3.79. Take TCADRDNLTRSFSDLGFEVKCFND [R11S]: the protein stability index came to 3.57.

With TCADRDNLTRCFSDLGFEVKCFND [R11C], the protein stability index turned out to be 2.66. In the case of TCADRDNLTRHFSDLGFEVKCFND [R11H] it was 3.5; in that of TCADRDNLTRDFSDLGFEVKCFND [R11D], 4.12; in that of TCADRDNLTRQFSDLGFEVKCFND [R11Q], 3.5. TCADRDNLTRTFSDLGFEVKCFND [R11T]: the protein stability index amounted to 3.2. Take TCADRDNLTRKFSDLGFEVKCFND [R11K]: the protein stability index worked out at 3.65. To TCADRDWLTRRFSDLGFEVKCFND [N7W] belongs 2.52.

Take TCADRDRLTRRFSDLGFEVKCFND [N7R]: the protein stability index is 2.98. For TCADRDVLTRRFSDLGFEVKCFND [N7V], the protein stability index was determined as 3.04. With TCADRDFLTRRFSDLGFEVKCFND [N7F], the protein stability index stood at 2.78.

Consider TCADRDLLTRRFSDLGFEVKCFND [N7L], for which the protein stability index is 2.98. With TCADRDKLTRRFSDLGFEVKCFND [N7K], the protein stability index stood at 3.06. In the case of TCADRDSLTRRFSDLGFEVKCFND [N7S], the protein stability index was determined as 3.51. In the case of TCADRDYLTRRFSDLGFEVKCFND [N7Y] it was 2.72; in that of TCADRDGLTRRFSDLGFEVKCFND [N7G], 3.71. In the case of TCADRDQLTRRFSDLGFEVKCFND [N7Q] it was 2.92; in that of TCADRDALTRRFSDLGFEVKCFND [N7A], 2.89. In the case of TCADRDMLTRRFSDLGFEVKCFND [N7M] it was 3.35. Turning to TCADRDTLTRRFSDLGFEVKCFND [N7T], the protein stability index is 3.52. To TCADRDCLTRRFSDLGFEVKCFND [N7C] belongs 3.13; to TCADRDPLTRRFSDLGFEVKCFND [N7P], 3.4. To TCADRDHLTRRFSDLGFEVKCFND [N7H] belongs 3.63; to TCADRDELTRRFSDLGFEVKCFND [N7E], 3.55. In the case of TCADRDDLTRRFSDLGFEVKCFND [N7D], the protein stability index worked out at 3.41. Turning to TCADRDILTRRFSDLGFEVKCFND [N7I], the protein stability index amounted to 3.22. On to TCADRDNLWRRFSDLGFEVKCFND [T9W], for which the protein stability index amounted to 2.34. To TCADRDNLGRRFSDLGFEVKCFND [T9G] belongs 3.47; to TCADRDNLERRFSDLGFEVKCFND [T9E], 3.75. Turning to TCADRDNLRRRFSDLGFEVKCFND [T9R], the protein stability index amounted to 3.36. To TCADRDNLNRRFSDLGFEVKCFND [T9N] belongs 2.83. For the variant TCADRDNLMRRFSDLGFEVKCFND [T9M], the protein stability index worked out at 2.54. As for TCADRDNLPRRFSDLGFEVKCFND [T9P], the protein stability index was found to be 3.62. Consider TCADRDNLFRRFSDLGFEVKCFND [T9F], for which the protein stability index stood at 1.94. In the case of TCADRDNLKRRFSDLGFEVKCFND [T9K] it was 3.12; in that of TCADRDNLIRRFSDLGFEVKCFND [T9I], 2.69; in that of TCADRDNLQRRFSDLGFEVKCFND [T9Q], 3.49.

TCADRDNLVRRFSDLGFEVKCFND [T9V]: the protein stability index was 3.58. In the case of TCADRDNLDRRFSDLGFEVKCFND [T9D] it was 3.51.

For the variant TCADRDNLARRFSDLGFEVKCFND [T9A], the protein stability index was determined as 3.3. For the variant TCADRDNLSRRFSDLGFEVKCFND [T9S], the protein stability index was 3.25. To TCADRDNLLRRFSDLGFEVKCFND [T9L] belongs 3.12; to TCADRDNLCRRFSDLGFEVKCFND [T9C], 2.87; to TCADRDNLYRRFSDLGFEVKCFND [T9Y], 2.41. On to TCADRDNLHRRFSDLGFEVKCFND [T9H], for which the protein stability index stood at 3.03.
